This is an account of results in paper PMC4703518.

In one series the target is T1, Unkempt ZnF1-3 (mouse, UniProt Q8BL48 31-174).
T1 sequence: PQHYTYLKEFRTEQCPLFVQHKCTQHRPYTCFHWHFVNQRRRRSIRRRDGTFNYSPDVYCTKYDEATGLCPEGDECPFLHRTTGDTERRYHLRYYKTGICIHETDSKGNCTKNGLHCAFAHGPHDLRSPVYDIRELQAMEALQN
Briefly: ITC.

The target in the next series is T2, Unkempt ZnF1-6 WT (mouse, UniProt Q8BL48 31-335).
T2 sequence: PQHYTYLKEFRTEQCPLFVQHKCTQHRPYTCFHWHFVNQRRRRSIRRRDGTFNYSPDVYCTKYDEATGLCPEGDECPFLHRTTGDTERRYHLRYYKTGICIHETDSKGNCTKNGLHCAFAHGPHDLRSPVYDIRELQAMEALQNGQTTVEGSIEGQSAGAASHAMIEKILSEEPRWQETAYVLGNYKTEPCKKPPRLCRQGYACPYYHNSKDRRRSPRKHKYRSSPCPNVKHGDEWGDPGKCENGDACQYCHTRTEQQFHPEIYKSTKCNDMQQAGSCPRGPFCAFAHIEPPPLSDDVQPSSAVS
Briefly: EMSA.

A further series addresses T3, Unkempt ZnF4-6 (mouse, UniProt Q8BL48 204-335).
T3 sequence: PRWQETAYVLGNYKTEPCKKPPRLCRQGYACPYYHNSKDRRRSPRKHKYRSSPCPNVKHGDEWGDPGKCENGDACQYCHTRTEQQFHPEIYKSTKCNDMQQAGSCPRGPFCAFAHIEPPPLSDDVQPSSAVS
Briefly: ITC. A general note: ITC needs no label: the signal is the heat of the interaction.

As for ACUCCCAAUUAUUAAUGA (ssRNA) [HSPA8 URE 18-mer UAG-mutated], the binding result with Unkempt ZnF1-3 is listed as “binds”. On to ACUUAGAAUUAUUAAUGA (ssRNA) [HSPA8 URE 18-mer WT], for which the binding result in the series with Unkempt ZnF1-6 WT and with Unkempt ZnF4-6 was “binds” throughout.
